Experimental findings from the DeepSol protein solubility set are described below.

This data set in a line: soluble on expression in E. coli; label from the status in PepcDB or PDB records.
Take “MKHTIGILGGMGPAATADMLEKFVELRHASCDQQHIPLIVSSIPDIPDRTACLLSGGPSPYRYLERYLHMLEDAGAECIVIPCNTAHYWFDDLQNVAKARMISILDATLGDIPPSARHVGLLATNATLATGLYQKKALARGLTLIQPEDAGQALVMQAIYTLKRGDKTAAQALLLPQIDSLIARGAQAIIMGCTEIPLIVAGHERAIACPMIDSTASLVRAAIRWYESWPDTRASLTGEQRLTA”: the “soluble on expression in E. coli” value is listed as “not soluble”.

For “MSTQGEIRVGPSHQAKLPDLQPFPSPDGDTVTQHEELVWMPGVNDCDLLMYLRAARSMAAFAGMCDGGSTEDGCVAASRDDTTLNALNTLHESGYDAGKALQRLVKKPVPKLIEKCWTEDEVKRFVKGLRQYGKNFFRIRKELLPNKETGELITFYYYWKKTPEAALEHHHHHH”, the “soluble on expression in E. coli” value was “soluble”. Consider “MGSDKIHHHHHHMKHYQTIIIGAGAAGIGFGSAMQRLGLTNFLIIEKGHIGESFLRWPRTTQFITPSFTTNGFGFPDLNAVIPDTSPAFSFEKEHLSGVEYARYLQLVAAHYNLPIQNETSVLSIDKRDSLFVIKTSKGDFSADYLIMATGEFQNPNTIDIKGADLGMHYGQVDNFHIKSDNPFIIIGGNESACDALTHLVYLGNQVELYTDTFGRKESNPDPSISLSPLTKERLKHIQDHKKEYYSISEGKKAIEIKQIGKQYQVTFDDGSTAESFHKPILSTGFLNTCHLIDGIALFEYDKNQLPIVTEDDESTIVNNCFLIGPSLRQRDTIFCYIYKFRQRFVPVINHIAQREGIILDEDTLEFFKENQMYLDNLACCDVNCDC”, for which the “soluble on expression in E. coli” value is reported as “not soluble”. For “MVALSNALSRVFGSLAGYKFPSFIQKGINALYVKIFKIDLSEFEPLENYRSLNALFTRSLKKERPFDKSPNICIAPCDALITECAFLDNDSALQIKGMPYKAHELVGEINPLSPSFFYANFYLSPKDYHHYHAPCDLEILEARYFAGKLLPVNKPSLHKNNNLFVGNERVTLVAKDIQGNRLYFVAVGALNVGKMRFNFDKNIQTNAKARFTQTYSYNPPIKVKKGDNLGNFEMGSTIVLFIQNTAFKDLKEKNVKFGESIGEFHANLEHHHHHH”, the “soluble on expression in E. coli” value is recorded as “soluble”.

Regarding “MGSDKIHHHHHHMNIQSIEPTPSPNTMKLTLDQTLPQGKSNNYTLKNKEEAPPFIQKLFEIEGVKGVYHVADFLAIERNAKVDWKVILPKVRAVFGDETGDGPQKEKPEVQEGYGEVQVFLQLFKGIPMQIKLSNGEEEVREGLPERFANAAFAAQQPDDNVVLERKWVEQGVRYGELADVAKDVAEEVSAAFSQERLDRLVNIAKGLVDKTQEQTEERFRKVTLADMEQDDWRDRYAALDKMDPTEEDLPVLEKALQDEKASIRRLATVYLGMIEKPVVLPLLEKALKDPSVTVRRTAGDCMSDIGDPAAIPAMIEALKDKNKLVRWRAAMFLYEVGDETAIDALRLAEDDPEFEVAMQVKMALERIVGGEEAKGSVWKQMTEEMAKGKNE”, the “soluble on expression in E. coli” value was “not soluble”. In the case of “MAEHVEIVEMAARDGLQNEKRFVPTADKIALINRLSDCGYARIEATSFVSPKWVPQLADSREVMAGIRRADGVRYSVLVPNMKGYEAAAAAHADEIAVFISASEGFSKANINCTIAESIERLSPVIGAAINDGLAIRGYVSCVVECPYDGPVTPQAVASVTEQLFSLGCHEVSLGDTIGRGTPDTVAAMLDAVLAIAPAHSLAGHYHDTGGRALDNIRVSLEKGLRVFDASVGGLGGSPFAPGAKGNVDTVAVVEMLHEMGFETGLDLDRLRSAGLFTQALRQDKAALEHHHHHH” it was “soluble”; in that of “MAPVLSKDVADIESILALNPRTQSHAALHSTLAKKLDKKHWKRNPDKNCFHCEKLENNFDDIKHTTLGERGALREAMRCLKCADAPCQKSCPTHLDIKSFITSISNKNYYGAAKMIFSDNPLGLTCGMVCPTSDLCVGGCNLYATEEGSINIGGLQQFASEVFKAMNIPQIRNPCLPSQEKMPEAYSAKIALLGAGPASISCASFLARLGYSDITIFEKQEYVGGLSTSEIPQFRLPYDVVNFEIELMKDLGVKIICGKSLSENEITLNTLKEEGYKAAFIGIGLPEPKTDDIFQGLTQDQGFYTSKDFLPLVAKSSKAGMCACHSPLPSIRGAVIVLGAGDTAFDCATSALRCGARRVFLVFRKGFVNIRAVPEEVELAKEEKCEFLPFLSPRKVIVKGGRIVAVQFVRTEQDETGKWNEDEDQIVHLKADVVISAFGSVLRDPKVKEALSPIKFNRWDLPEVDPETMQTSEPWVFAGGDIVGMANTTVESVNDGKQASWYIHKYIQAQYGASVSAKPELPLFYTPVDLVDISVEMAGLKFINPFGLASAAPTTSSSMIRRAFEAGWGFALTKTFSLDKDIVTNVSPRIVRGTTSGPMYGPGQSSFLNIELISEKTAAYWCQSVTELKADFPDNIVIASIMCSYNKNDWMELSRKAEASGADALELNLSAPHGMGERGMGLACGQDPELVRNICRWVRQAVQIPFFAKLTPNVTDIVSIARAAKEGGADGVTATNTVSGLMGLKADGTPWPAVGAGKRTTYGGVSGTAIRPIALRAVTTIARALPGFPILATGGIDSAESGLQFLHSGASVLQVCSAVQNQDFTVIQDYCTGLKALLYLKSIEELQGWDGQSPGTESHQKGKPVPRIAELMGKKLPNFGPYLEQRKKIIAEEKMRLKEQNAAFPPLERKPFIPKKPIPAIKDVIGKALQYLGTFGELSNIEQVVAVIDEEMCINCGKCYMTCNDSGYQAIQFDPETHLPTVTDTCTGCTLCLSVCPIIDCIRMVSRTTPYEPKRGLPLAVNPVC”, “soluble”; in that of “MGHHHHHHSHMAICQFFLQGRCRFGDRCWNEHPGARGAGGGRQQPQQQPSGNNRRGWNTTSQRYSNVIQPSSFSKSTPWGGSRDQEKPYFSSFDSGASTNRKEGFGLSENPFASLSPDEQKDEKKLLEGIVKDMEVWESSGQWMFSVYSPVKKKPNISGFTDISPEELRLEYHNFLTSNNLQSYLNSVQRLINQWRNRVNELKSLNISTKVALKCLWKIYTHLSPKIYGPDCAL”, “not soluble”.

For “MVVNKRLILILLFILNTAKSDELSWKGNDFTLYARQMPLAEVLHLLSENYDTAITISPLITATFSGKIPPGPPVDILNNLAAQYDLLTWFDGSMLYVYPASLLKHQVITFNILSTGRFIHYLRSQNILSSPGCEVKEITGTKAVEVSGVPSCLTRISQLASVLDNALIKRKDSAVSVSIYTLKYATAMDTQYQYRDQSVVVPGVVSVLREMSKTSVPTSSTNNGSPATQALPMFAADPRQNAVIVRDYAANMAGYRKLITELDQRQQMIEISVKIIDVNAGDINQLGIDWGTAVSLGGKKIAFNTGLNDGGASGFSTVISDTSNFMVRLNALEKSSQAYVLSQPSVVTLNNIQAVLDKNITFYTKLQGEKVAKLESITTGSLLRVTPRLLNDNGTQKIMLNLNIQDGQQSDTQSETDPLPEVQNSEIASQATLLAGQSLLLGGFKQGKQIHSQNKIPLLGDIPVVGHLFRNDTTQVHSVIRLFLIKASVVNNGISHGLEHHHHHH”, the “soluble on expression in E. coli” value is listed as “soluble”. As to “MIISDVLYGEFEVDQVVEELISSKSMQRLKGIHQNGASYLMNEKWNVTRFDHSVGVMLLVKKLGGSVKEQIASLLHDVSHTAFSHVIDYVFDNEDESYHEEIFSSVVKNSEIPAILAKHGYNYEDILLDDSKWTLLERSAPELCADRVDYTLRDMYTYGYISLEEVHRFLEDIIAVEGKMVVQSVEMAEWFTETYYKEVIDFFMKPMNIYGNDMLAKTLKLSLHKKVIHADDFLLEDEELISKLQQCNDPEVEALLSKVHPNVKVKEDRNDYDLHQKNKVRLIDPPLLREGKIVQSSVVSENIRQISDIAYEKAVRGMYVKVISN”, the “soluble on expression in E. coli” value is given as “not soluble”.

With “MGSDKIHHHHHHMTRPPDLLADVLDGIDALLVFSPSGSYYDRVDDVEGVDVVVVATENAVGAETFVELPLAFDDVREQIRFGIEGALSEGVVADGDELGCVAPFLSEEVDMVTRTRANAGTQSSVYELFASTRAEPGVIRDVFDVAIELGRKGQKGKPVGALFVVGDAGKVMTKSRPLSYNPFEKSHVHVGDPIVNVMLKEFSRLDGAFVISDSGKIVSSYRYLEPGAEGTDIPKGLGARHMAAGAITRDTNAVAIVLSESDGLVRAFRNGELVLELDPEDN”, the “soluble on expression in E. coli” value was “not soluble”. For “MGSDKIHHHHHHLITVTDLSLQIGSRTLYSDVNLKFTPGNCYGIIGANGAGKSTFLKLLEGKMEPTTGSISMGPNERMSSLNQDHFAFEDFSVMETVIQGHQKLYQVMKERDALYAKADFSEEDGVKAAELETEFAELDGWNAEADAAQLLQSMSIPEDMHQKQMSELAESDKVKVLLAQALFGNPDTLLLDEPTNGLDVHTTAWLENFLADYENIVLVVSHDRHFLNQVCTQMCDVDRGQIKLYVGNYDFWYESSKLATELARQQNAKKEEQIKQLQEFIARFSANASKSKQATSRKKQLDKISLDDIKPSSRKYPYIKFEMNRDLGNDLLRVDNVSYKSGDEQLLDNVSFIIRPGDKVAFLSRNTRATTALMEIIAGRLEPDSGTVTWGQTTSFNYMSRDLNANFDNDELTILDWLRQYADKEHDDNTFLRGFLGRMLFSGDEINKQIKVLSGGEKVRCQLSRMMLEAANVLVMDDPTNHLDLESITALNEAMENYPGSILFTSHDHEFIQTIANHIIEVGPKGVVARADISYDDFLAHPTVQEQVAKIY”, the “soluble on expression in E. coli” value is listed as “not soluble”.

For the sequence “MWDSENIEELSLVIGIGLDKPDDENLELTQQILVPKIISAKEGSSSDPTQLSITKGKTVHQMMRTSALKHKPTFSQHLRLILLSKSVIADQIGMDAIINQFVRDNGTRRSSYVFITNGRTKDIFNMNDEGEPASNVIYDLTENNKVTIRTMEPVTLGEISEHLTSDDSFLIPHVGKENGKLAINGASIIKNKLWHRDLTPIEVQNISLFSGTVEGGVIDLKRDGHLFSYEVYSSNRKIKTAYKDGKFKFTVTRNIEGRLSEDWNPNEDSFKDSYIKSIEKTVEKRVHETVTSFITEKLQKEIKADVTGLGNEVRIHYPQKWKKISRKWDDDYFSNAEIDYRVNVIVRDFGTKGANKLEHHHHHH”, the “soluble on expression in E. coli” value was “not soluble”. The entry for “SLKINQEEDTVSSEKNKLCDNNNNNNMVHTRHIYNVCELNKCLRENKLIPYNNIYKMKHLYLNILDTFDENILKHVNKAHLFIDSVIQKKKNILIHCMAGISRCSSIILSYVSKKNKKGIEYNFNLLKSKYPFAHPNENFYRQLLLYEKMNYTLDGCTDYHNIYK” is “soluble”; for “QVTLKESGPTLVKPTQTLTLTCTFSGFSLRTSRVGVSWIRQPPGKALEWLAHIYWDDDKRYNPSLKSRLTISKDTSKNQVVLTMTNMDPVDTATYYCARRGFYGRKYEVNHFDYWGQGTTVTVSSASTKGPSVFPLAPSSKSTSGGTAALGCLVKDYFPEPVTVSWNSGALTSGVHTFPAVLQSSGLYSLSSVVTVPSSSLGTQTYICNVNHKPSNTKVDKKVEPKSCG” it is “soluble”; for “MLIVKTLVIIPTYNEAENIRPLVEDILDRYPEGLELLVIDDSSPDGTAGIVKAIMKNEPRVMLLSRPSKLGLGTAYLTGFRYALERGYERVIEMDADFSHDPASIASLIKAMDGADMVIGSRYMNNTVNVVNWPLSRLILSKSASIYSRWITGMPVSDPTSGFKCISAKALRFIALDRVRSQGYSFQIEIDFRVWKKNLVIHEVPIIFVDRSVGKSKMTRKNIVEAVWMVWWLKFLSIIGRLLEHHHHHH” it is “not soluble”.

For the sequence “MGSDKIHHHHHHMDISGRDVETRLTLAREFMSGVDELPTVPDIVLRIAGKLNDPDVAIDEVADLLLQDQVLTARVVHLANSPLYSAARPISSIRDAVIYLGLDLLREAIFTCAIVDLFKTGKGPLNRSTLWAHSLGVARIAKLIAERTGFLNPVNVYVAGLLHDVGEVFINFFRGKEFSQVVTLVDEEKITFGQAEERLFGTSHCEVGFALAKRWSLNEFICDTILYHHDIEAVPYKQAAIVAMVAFADEYCTLRRLGFEGHKPVDSVRTLLENHPSWGVIRRSLGGSDFDEKLIVAELDSSIVEIRAAVDELFLL”, the “soluble on expression in E. coli” value was “not soluble”.
